B1: GST-tagged wild-type yeast PEX39 (GST–PEX39) [yeast] / yeast PEX7 [yeast (S. cerevisiae)] (parent complex)
chain 1: MAAGGELSYEELLDHILNNKPIPNIVEVPNVTLDEGLASTPSLRPRPRPWEGQLQHQSHQGSLDKPNISLDIDQESLEGMTSLTRLSECYDIQSKLQINDSDNDNDDNNNDNNKGDGNDDDNNTVTANPTAR
chain 2: MLRYHMQGFSGYGVQYSPFFDNRLAVAAGSNFGLVGNGKLFILEIDRSGRIVEVNSFLTQDCLFDLAWNESHENQVLVAQGDGTLRLFDTTFKEFPIAIFKEHEREVFSCNWNLVNRQNFLSSSWDGSIKIWSPLRKQSLMTLTPRPLEITKMVDPLNAIILKKKSFTGISKNRNCVYQAQFSPHDQNLVLSCSGNSYASLFDIRLPSGKNQNNFLVHSGLEALTCDFNKYRPYVVATGGVDNAIRIWDIRMLNKNESATIKRTVPGQLHNSSCINEIPNAHGLAIRKVTWSPHHSNILMSASYDMTCRIWRDLSNDGAKETYKTNSTDATKGSIFNFTQHSEFVFGADWSLWGKPGYVASTAWDGNLFVWNGLG

Variants of: B1
Assay: bead sedimentation (GST pull-down depletion) assay, SDS-PAGE with Coomassie quantification of PEX7 left in the supernatant; 1 µM yeast PEX7; varying GST-PEX39 concentrations; 1 h; 25 °C; parent: 0.6 nM

Variant	screen value
chain 1 MAAGGELSAEEAADHAANNKPIPNIVEVPNVTLDEGLASTPSLRPRPRPWEGQLQHQSHQGSLDKPNISLDIDQESLEGMTSLTRLSECYDIQSKLQINDSDNDNDDNNNDNNKGDGNDDDNNTVTANPTAR	610 nM
